Data on one molecule can be found in US20250313625A1 (ELPISCIENCE SUZHOU BIOPHARMA, published 2025).

Assay [1] has as its target T1, human LAG3 ECD recombinant protein (plate coated, tag not stated) (human, UniProt P18627 23-450).
T1 construct: extracellular domain
T1 sequence (looked up): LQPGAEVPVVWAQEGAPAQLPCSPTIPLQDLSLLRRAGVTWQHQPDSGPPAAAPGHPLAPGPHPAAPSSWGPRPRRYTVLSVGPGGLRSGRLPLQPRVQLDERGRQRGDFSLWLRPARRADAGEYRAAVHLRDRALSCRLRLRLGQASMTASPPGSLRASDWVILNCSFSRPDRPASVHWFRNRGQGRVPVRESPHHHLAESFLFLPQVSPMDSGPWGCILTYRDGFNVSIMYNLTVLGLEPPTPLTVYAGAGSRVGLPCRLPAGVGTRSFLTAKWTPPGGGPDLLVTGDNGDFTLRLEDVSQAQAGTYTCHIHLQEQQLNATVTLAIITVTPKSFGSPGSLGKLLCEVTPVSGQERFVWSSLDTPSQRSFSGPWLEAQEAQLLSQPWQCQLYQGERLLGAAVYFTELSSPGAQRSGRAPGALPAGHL
Nature of the assay: competitive ELISA format I: His-FGL1 binding to coated LAG3 ECD. (In general: ELISA stands for enzyme-linked immunosorbent assay.)

The target in assay [2] is T2, hFc tagged human LAG3 ECD recombinant protein (human, UniProt P18627 23-450).
T2 construct: range 23-450; also called biotin labelled hFc tagged human LAG3 ECD; not shown: human IgG Fc tag
T2 sequence (looked up): T1 sequence (looked up)
Nature of the assay: competitive ELISA format II: biotin labeled hFc tagged LAG3 ECD binding to plate coated His tagged human FGL1; 023c run beside 027c and 047c. Here is the method:
(§1) After washing, HRP labeled anti-His 2nd antibody (Sigma) was added and incubated at 37° C. for 1 hour. Then, 100 μl/well of TMB solution (Biotechnology) was added. After incubation for 15 minutes at room temperature, the reaction was stopped by the addition of 50 μl of 1N HCl. OD 450 nm was read. […] After washing, HRP labeled anti-SA 2nd antibody (Sigma) was added and incubated at 37° C. for 1 hour. Then, 100 μl/well of TMB solution (Biotechnology) was added. After incubation for 15 minutes at room temperature, the reaction was stopped by the addition of 50 μl of 1N HCl. OD 450 nm was read. […] The competition assay of format III is a competitive FACS assay. […] After washing, dye labeled anti-His 2nd antibody (Sigma) was added and incubated at 37° C. for 1 hour. Fluorescence intensity was detected.

The target in assay [3] is T3, mFc tagged human LAG3 ECD recombinant protein (human, UniProt P18627 23-450).
T3 construct: extracellular domain; purchased from Biointron; not shown: mouse IgG Fc (mFc) tag
T3 sequence (looked up): T1 sequence (looked up)
Nature of the assay: competitive ELISA: mFc tagged human LAG3 ECD binding to plate coated LSECtin ECD. Here is the method:
Activity of the purified chimeric antibodies to block LAG3 and LSECtin interaction was determined by competitive ELISA assay. […] After washing, HRP labeled anti-mouse Fc 2nd antibody (Sigma) was added and incubated at 37° C. for 1 hour. Then, 100 μl/well of TMB solution (Biotechnology) was added. After incubation for 15 minutes at room temperature, the reaction was stopped by the addition of 50 μl of 1N HCl. OD 450 nm was read.

Assay [4] addresses T4, human LAG3 (form used in Octet, Biacore and HDX-MS not given) (human, UniProt P18627 23-450, limits assumed).
T4 sequence (looked up): T1 sequence (looked up)
The assay is described as follows: BLI (Octet), 1:1 fit. Here is the method: The purified chimeric antibodies were characterized for binding affinity against human LAG3 using Bio-Layer Interferometry technology (Octet system). The association and dissociation curves were fit with 1:1 binding model, and the Ka/Kd/KD values for each antibody were calculated.

For assay [5], the target named is T4, human LAG3 (form used in Octet, Biacore …). Nature of the assay: BLI (Octet). In general terms: Biolayer interferometry detects binding as a change in optical thickness at a sensor tip.
The target of assay [6] is T2, hFc tagged human LAG3 ECD recombinant …. The assay is described as follows: competitive ELISA format II: biotin hFc-LAG3 ECD binding to coated His-FGL1. Here is the method: as §1

B1: 023c (antibody, human IgG4, V domains shown)
VH: QIQLVQSGPVLKKPGETVKISCKASGYTFTESPMNWVKQAPGRGFKWMGMIYTDTGEPTYAEEFKGRFAFSLETSASTAYLQINNLKSEDTATYFCVSDYGSILYWYFDVWGTGTTVTVSS
VL: DIVMTQSHKFMSTSVGDRVSITCKASQDVSTAVAWYQQTPGQSPKLLIYSASYRYTGVPDRFTGSGSGTDFTFTISSVQAEDLAVYYCQQHYNSPPTFGAGTKLELK
notes: human IgG4 S228P / kappa chimeric antibody; also called chimeric antibody 023; ES005-023c; not shown: human kappa light chain constant region (pcDNA3.4-hIgGk vector)
With B1, in assay [1], the “Blocking ratio at 66.7 nM (%)” value stood at 52.9%. Further, the “IC50 (read off the curve)” value in assay [2] is roughly 0.3 µg/mL. Besides, in assay [3], the “%Blocking at 4 nM” value was 27.8%, the “%Blocking at 20 nM” value came to 94.4% and the “%Blocking at 100 nM” value was found to be 94.8%. Besides, in assay [4], the Kd – broadly, the equilibrium constant for the complex coming apart – worked out at 0.648 nM; the koff (commonly a measure of how fast the partners let go of each other) was determined as 0.000233 s⁻¹; the kon (usually the second-order rate constant of association) came to 359000 M⁻¹ s⁻¹. In assay [5], this molecule returned a Kd of 0.456 nM, an off-rate (koff) of 0.000161 s⁻¹ and a kon of 352000 M⁻¹ s⁻¹. For the same molecule, in assay [6], the IC50 – broadly, the concentration that inhibits the measured activity by half – was 1.47 nM and the “TOP blocking (%)” value turned out to be 86.8%.
